Assay results published in article PMC9897468 (Proceedings of the National Academy of Sciences of the …, 2022).

B1: C-terminal APC fragment (APC-C), residues 2,163 to 2,845 (domain or fragment, UniProt Q61315 2163-2845, looked up)
chain: KGPRILKPGEKSTLEAKKIESENKGIKGGKKVYKSLITGKIRSNSEISSQMKQPLPTNMPSISRGRTMIHIPGLRNSSSSTSPVSKKGPPLKTPASKSPSEGPGATTSPRGTKPAGKSELSPITRQTSQISGSNKGSSRSGSRDSTPSRPTQQPLSRPMQSPGRNSISPGRNGISPPNKLSQLPRTSSPSTASTKSSGSGKMSYTSPGRQLSQQNLTKQASLSKNASSIPRSESASKGLNQMSNGNGSNKKVELSRMSSTKSSGSESDSSERPALVRQSTFIKEAPSPTLRRKLEESASFESLSPSSRPDSPTRSQAQTPVLSPSLPDMSLSTHPSVQAGGWRKLPPNLSPTIEYNDGRPTKRHDIARSHSESPSRLPINRAGTWKREHSKHSSSLPRVSTWRRTGSSSSILSASSESSEKAKSEDERHVSSMPAPRQMKENQVPTKGTWRKIKESDISPTGMASQSASSGAASGAESKPLIYQMAPPVSKTEDVWVRIEDCPINNPRSGRSPTGNTPPVIDSVSEKGSSSIKDSKDSKDTHGKQSVGSGSPVQTVGLETRLNSFVQVEAPEQKGTEAKPGQSNPVSIAETAETCIAERTPFSSSSSSKHSSPSGTVAARVTPFNYNPSPRKSSADSTSARPSQIPTPVSTNTKKRDSKTDITESSGAQSPKRHSGSYLVTSV
modifications: Alexa647 label (APC-C-647, in the TIRF-M experiments)
B2: full-length mouse KIF5AA homodimer (kinesin-1), unlabeled (natural protein, UniProt P33175 1-1027, looked up)
chain: MAETNNECSIKVLCRFRPLNQAEILRGDKFIPIFQGDDSVIIGGKPYVFDRVFPPNTTQEQVYHACAMQIVKDVLAGYNGTIFAYGQTSSGKTHTMEGKLHDPQLMGIIPRIARDIFNHIYSMDENLEFHIKVSYFEIYLDKIRDLLDVTKTNLSVHEDKNRVPFVKGCTERFVSSPEEILDVIDEGKSNRHVAVTNMNEHSSRSHSIFLINIKQENVETEQKLSGKLYLVDLAGSEKVSKTGAEGAVLDEAKNINKSLSALGNVISALAEGTKSYVPYRDSKMTRILQDSLGGNCRTTMFICCSPSSYNDAETKSTLMFGQRAKTIKNTASVNLELTAEQWKKKYEKEKEKTKAQKETIAKLEAELSRWRNGENVPETERLAGEDSALGAELCEETPVNDNSSIVVRIAPEERQKYEEEIRRLYKQLDDKDDEINQQSQLIEKLKQQMLDQEELLVSTRGDNEKVQRELSHLQSENDAAKDEVKEVLQALEELAVNYDQKSQEVEEKSQQNQLLVDELSQKVATMLSLESELQRLQEVSGHQRKRIAEVLNGLMRDLSEFSVIVGNGEIKLPVEISGAIEEEFTVARLYISKIKSEVKSVVKRCRQLENLQVECHRKMEVTGRELSSCQLLISQHEAKIRSLTEYMQTVELKKRHLEESYDSLSDELARLQAHETVHEVALKDKEPDTQDAEEVKKALELQMENHREAHHRQLARLRDEINEKQKTIDELKDLNQKLQLELEKLQADYERLKNEENEKSAKLQELTFLYERHEQSKQDLKGLEETVARELQTLHNLRKLFVQDVTTRVKKSAEMEPEDSGGIHSQKQKISFLENNLEQLTKVHKQLVRDNADLRCELPKLEKRLRATAERVKALEGALKEAKEGAMKDKRRYQQEVDRIKEAVRYKSSGKRGHSAQIAKPVRPGHYPASSPTNPYGTRSPECISYTNNLFQNYQNLHLQAAPSSTSDMYFASSGATSVAPLASYQKANMDNGNATDINDNRSDLPCGYEAEDQAKLFPLHQETAAS

Legend:
[1] = biological target: B2; assay: TIRF-M in vitro motility reconstitution
APC-mGFP = APC-mGFP (UniProt Q61315 1-2845); assay: TIRF-M in vitro motility reconstitution

Row | Binder | binding result [1] | binding result (APC-mGFP)
1 | B1 | binds | 
2 | B2 |  | binds
